# Reference: patent US20230374114A1 (Dana-Farber, published 2023)
# Changes are numbered by the printed parent chain.
# B1: Ab_14 (scFv, V domains shown)
# VH: QVQLQQSGPGLVKPSQTLSLTCAISGDSVSSNSAAWNWIRQSPARGLEWLGRTYYRSRWYNDYAISMKSRITINPDTSKNQFSLQLESVTPEDTAVYYCAREIRGFDYWGQGTLVTVSS
# VL: QSVLTQPPSASGSPGQSVTISCTGTSSDVGAYNFVSWYQHHPGKAPKLIIYDFNKRPSGVPDRFSGSKSGNTASLTVSGLQADDEADYYCSSYAGSNNFDVVFGGGTKLTVL
# B2: Ab_16 (scFv, V domains shown)
# VH: QVQLVQSGGGVVQPGRSLRLSCAASGFTFSNYGMHWVRQAPGKGLEWVALIWERGSKKDYADSVKGRFTVSRDNSKNTLYLQMNSLRPEDTAVYFCAREGISMTGAEYFQHWGQGTLVTVSS
# VL: QSVLTQPPSVSGSPGQRVTMSCTGSSSNIGAGYDVHWYQQVPGAAPRLLIYGTNNRPSGVPDRFSGSKSGTSASLTITGLQAEDEADYYCQSYDNSLTDPYVFGTGTKVTVL
# B3: Ab_17 (scFv, V domains shown)
# VH: QVQLVQSGGGVVQPGRSLRLSCAASGFTFDDYAMHWVRQVPGKGLEWVSGIDWNSGVIGYADSVKGRFTISRDNVKNSLYLQMNSLRTEDSALYYCAKDIGPGGSGSYYAFDIWGQGTTVTVSS
# VL: QSALTQPASVSGSPGQSITISCTGTSSDVGGSKYVSWYQQHPGKAPKVMIYDVTKRPSGVPDRFSGSKSGNTASLTISGLQAEDEADYYCAAWDDSLNGVVFGGGTKLTVL
# B4: Ab_18 (scFv, V domains shown)
# VH: EVQLVQSGGGVVQPGRSLRVSCAASGFSFSRYGMHWVRQAPGKGLEWVAFIRHDGSKKYYADSVEGRFTISRDNSRNTVSLEMNSLRGEDTAVYYCAKDGRLEAALDDWGQGTLVTVSS
# VL: NFMLTQPHSMSGSAGKTVTVSCIRSSGSIANNFVQWYQQRPGSAPTTVIYEDNQRPSGVPDRFSGSIDSSSNSASLTISGLKTEDEADYYCQSYDSSNLVFGGGTRLTVL
# B5: Ab_19 (scFv, V domains shown)
# VH: EVQLVESGAEVKKPGESLKISCKGSGYSFTSYWIGWVRQMPGKGLEWMGIIYPGDSDTRYSPSFQGQVTISADKSISTAYLQWSSLKASDTAMYYCARRGDLDAFDIWGQGTMVTVSS
# VL: QPGLTQPPAASGTPGQRVTVSCSGASANIGSNAVSWFKQFPETAPRLLISGNTHRPSGVPDRVSGSKSGTSASLTISGLQSDDEADYYCAAWDDSLNGYVFGSGTKVTVL
# B6: Ab 20 (scFv, V domains shown)
# VH: QVQLVQSGGGSVKPGGSLRLSCAASGYRLSDYYMHWVRQAPGKGLEWVANIKQDGSEKYYVDSVKGRFTISRDNAKNSLYLQMNSLRAEDTAVYYCARVRGWSRGYFDYWGQGTLVTVSS
# VL: NFMLTQPHSVSESPGKTVTISCTGSSGSIASNYVQWYQQRPGSAPTTVIYEDNQRPSGVPDRFSGSIDSSSNSASLLISGLKTEDEADYYCQSYDSSNHWVFGGGTKLTVL
# B7: Ab 21 (scFv, V domains shown)
# VH: QVQLVQSGGGLVQPGGSLRLSCATSGFTFDDYAMHWVRQAPGKGLEWVSGISWNSGSIGYVDSVKGRFTISRDNRNNKVYLQMNNLRAEDTAVYYCARDWWGSIDHWGLGTLVTVSS
# VL: QSALTQPRSVSGSPGQSVTISCTGTSSDVGGYDYVSWYQQHPGKAPKLIIYDVSKRPSGVPDRFSGSKSGNTASLTVSGLQAEDEADYYCSSYTSSSPVVFGGGTKLTVL
# B8: Ab 23 (scFv, V domains shown)
# VH: EVQLVQSGAEVKKPGSSVKVSCRSSGGTFSTYGITWVRQAPGQGLEWMGRIIPSLGIPNYAQKFQGRVTITADTSVSTAWMELSSLESDDTAIYYCARENIDLATNDFWGQGTLVTVSS
# VL: QSALTQPPSASGSPGQSVTISCTGTSRDIGAYGYVSWYQQVPGKAPKLIIYEVRNRPSGVSSRFSGSKSGNTASLTISGLQAEDEADYYCSSYTSSSTLDVVFGGGTKLTVL
# B9: Ab 25 (scFv, V domains shown)
# VH: QVQLVQSGGGLVQPGGSLRLSCAASGFTFSSYWMSWVRQAPGKGLEWVANIKQDGSEKYYVDSVKGRFTISRDNAKNSLYLQMNSLRAEDTAVYYCARGFYYYGAFDIWGQGTTVTVSS
# VL: B6 VL with D68G, L77T
# B10: Ab 26 (scFv, V domains shown)
# VH: QVQLVQSGGGLVQPGRSLRLSCAASGFTFDDYAMHWVRQVPGKGLEWVSGIDWNSGVIGYADSVKGRFTISRDNAKNSLYLQMNSLRAEDTALYYCAKDAYSYGFLGAFDIWGQGTMVTVSS
# VL: LPVLTQPPSVSVAPGQTASITCGGDNIRTKGVHWYQQKPGQAPLLVIYYASDRPSGIPERFSGSSSGNTATLTISRVEAGDEADYYCQVWDSSSDLVVFGGGTTLTVL
# B11: Ab 27 (scFv, V domains shown)
# VH: QVQLVQSGTEVKKPGASVKVSCKASGYSFTGSHLHWVRQAPGQGLEWMGWINPDSGVINYAQKFQGRVTLTRDTSISTAYMELSGLRSDDTAVYYCARDKAIGYVWALDYWGQGTLVTVSS
# VL: QSALTQPPSVSGSPGQSVTISCTGTSSDVGTYNRVSWYQQPPGKAPKLMIYEVSNRPSGVSNRFSGSKSGNTASLTISGLQAEDEADYYCSSYTRTFTYVFGTGTKVTVL
# B12: Ab 28 (scFv, V domains shown)
# VH: QVTLKESGPGLVNPSETLSLTCTVSGASISNSFWSWIRQSPGKGLEWIGYTSYSGNSIYNPSLKSRLTMSIDTSKNQLSLNLRSLTAADTAVYYCARREWIKGHFDYWGQGTLVTVSS
# VL: B6 VL with S26G, L77T, H99P, W100V
# B13: S1-RBD-R3-T1-C7 Ab (Ab 29) (scFv, V domains shown)
# VH: QVQLQQSGPGLVKPSQTLSLTCAISGDSVSSYSDAWNWIRQSPSRGLEWLGRTYYRSKWYNDYAVSVKSRITINPDTSKNQFSLQLSSVTPEDTAVYYCAREIVATTPFRNYYYGMDVWGQGTTVTVSS
# VL: NFMLTQPHSVSESPGNTVTISCTRTSGSIASNYVQWYQQRPGSSPTTVIFQDKLRPSGVPDRFSGSIDSSSNSASLTISGLKTEDEADYYCQSYDSSSLWVFGGGTKLTVL
# B14: RBD-R3-E1-A5 Ab (Ab_30) (scFv, V domains shown)
# VH: QVQLVQSGGGVVQPGKSLRLSCTASGFTFSDFPIHWVRQAPGKGLEWVGVISYDGNIKYYGDSVKGRFTISRDNAKNSLYLQMNSLRVEDTAVYYCARGGSSFDIWGQGTTVTVSS
# VL: SYELTQPPSVSEAPRQRVTISCSGSTSNIGNNAVSWYQHLPGKAPKLLIYYNERLPSGVSDRFSGSKSGTSASLAISGLRSEDEADYYCAAWDDSLSGHVVFGGGTKLTVL
# B15: S1-RBD-R3-T1-B12 Ab (Ab_31) (scFv, V domains shown)
# VH: QVQLVQSGAEVKKPGSSVKVSCKASGGTFSSYTISWVRQAPGQGLEWMGGIIPILGTPNYAQKFQDRVAITADKSTSTAYMELSSLRSEDTAVYYCAVGSGWYSGFDYWGQGTLVTVSS
# VL: B6 VL with N53S, L77T, Y94F, D95H, S96N, H99P, W100V, V101I
# B16: RBD-R3-E1-B3 Ab (Ab_32) (scFv, V domains shown)
# VH: QVQLVQSGAEVKKPGESLKISCKGSGYSFTSYWIGWVRQMPGKGLEWMGIIYPGDSDTRYSPSFQGQVTISADKSISTAYLQWSSLKASDTAMYYCARGWQWHDYWGQGTLVTVSS
# VL: QTVVTQEPAVSVALGQTVRITCQGDSLRSYYASWYQQKPGQAPVLVVYDKDKRPSGIPDRFSGSTSGNTASLTITGAQAEDEADYYCNSRDRSDNHVVFGGGTKLTVL
# B17: S1-RBD-R3-T1-D7 Ab (Ab_34) (scFv, V domains shown)
# VH: QVQLVQSGVEVKKPGESLKISCKGSGYSFTSYWIGWVRQMPGKGLEWMGIIYPGDSDTRYSPSFQGQVTISADKSISTAYLQWSSLKASDTAMYYCARTTYSYGSFDYWGQGTLVTVSS
# VL: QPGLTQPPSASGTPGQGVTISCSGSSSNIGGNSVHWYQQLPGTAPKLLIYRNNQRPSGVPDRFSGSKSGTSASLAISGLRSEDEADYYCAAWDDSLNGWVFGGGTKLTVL
# B18: RBD-R3-T1-H3 (Ab_2) (scFv, V domains shown)
# VH: EVQLVQSGAEVKKPGSSVKVSCKTSGYTFTTSGISWVRQAPGQGLEWMGWISAYNGNTNYAQKLQGRVTMTTDTSTSTAYMELRSLRSDDTAVYYCARDFHLYYGMDVWGKGTLVTVSS
# VL: QSALTQPPSASGSPGQSVTISCTGTSSDVGAYNYVSWYQQHPGKAPKLLIYDVTKRPPGVPDRFSGSKSGNTASLTVSGLQAEDEADYYCAVWDDGLNGRVVFGGGTKLTVL
# B19: S1-RBD-R3-T1-E2 (Ab7) (scFv, V domains shown)
# VH: B10 VH
# VL: QPGLTQPPSVSVAPGQTARISCGGNNIGSKSVHWYQQKPGRAPVLVVYEDRGRPSGIPERFSGSNSGNTATLTVSRVEAGDEADYYCQVWDGDSDHYVFATGTKVSIL
# B20: S1-R3-T1-C4 (Ab_8) (scFv, V domains shown)
# VH: QVQLVQSGAEVKKPGSSVKVSCKASGGTFSSYAISWLRQAPGQGLEWMGWINPNSGGTNYAQKFQGRVTMTRDTSISTAYMELSRLRSDDTAVYYCARGSGGYYLGWGQGTLVTVSS
# VL: QPGLTQPPSVSKGLRQTATLTCTGNSNNVGNQGAAWLQQHQGHPPKLLSYMNNNRPPGISERFSASRSGNTASLTITGLQPEDEADYYCSAWDSSLSRWVFGGGTKLSVL
# B21: S1-RBD-R3-T1-F5 (Ab2-7) (scFv, V domains shown)
# VH: QVTLKESGPTRVKPTQTLTLTCTFSGFSLSTTGVGVGWIRQPPGKALEWLALIYWNDDKRYSPSLKSRLTITKDTSKNQVVLTMTNMDPVDTATYYCARISGSGYFYPFDIWGQGTTVTVSS
# VL: B6 VL with G24R, A44S, L77T, T83A, N98S, H99L
# B22: Ab_13 (scFv, V domains shown)
# VH: B21 VH with T10K, R11L, T32S, N56D, T72A, N78Y, T117M, S122A
# VL: B6 VL with G24R, L77T, H99L
# B23: RBD-R3-E1-G7 (Ab2-10) (scFv, V domains shown)
# VH: EVQLVESGPGLVKPSETLSLTCTVSGGSISSYYWSWIRQPAGKGLEWIGRIYTSGSTNYNPSLKSRVTMSVDTSKNQFSLKLSSVTAADTAVYYCARDVGFGWFDRWGQGTLVTVSS
# VL: B6 VL with G24R, A44S, L77T, K82T, Y94F, S97A, N98S, H99L
# Molecular target: WT Spike (SARS-CoV-2, UniProt P0DTC2 16-1213)
row,Binder,Kd [pM]
1,B1,8.22
2,B2,11.8
3,B3,6.35
4,B4,9.07
5,B5,8.9
6,B6,9.01
7,B7,9.25
8,B8,8.84
9,B9,8.9
10,B10,11
11,B11,8.78
12,B12,8.9
13,B13,149
14,B14,1.02
15,B15,< 1
16,B16,6.32
17,B17,6.58
18,B18,199
19,B19,7
20,B20,7.15
21,B21,7.85
22,B22,8.55
23,B23,5.65
